{"source": "patent US20250215083A1", "about": "(JIANGSU HENGRUI PHARMACEUTICALS, published 2025)", "key": {"[1]": {"biological_target": "human GPRC5D (human, UniProt Q9NZD1 1-345)", "test": "cell-based or functional assay"}, "[2]": {"biological_target": "T1, human CCR8 (human, UniProt P51685 1-355)", "T1 construct": "on CHOK1-human CCR8 cells", "test": "FACS, CHOK1-human CCR8 cells", "source_text": "(§1) To determine whether the GPRC5D/CD3 bispecific antibodies of the present disclosure cross-bind to the GPCRA and GPCRB family members, a flow cytometry assay was used in this test example to measure the capacity of the GPRC5D/CD3 bispecific antibodies to bind to CHOK1-human CCR8 cells expressing CCR8 (the GPCR A family) (constructed with reference to Example 2) and CHOK1-human GIPR cells expressing human GIPR (the GPCR B family) (constructed with reference to Example 2). The specific procedure was as follows: The cells described above were cultured in DMEF/12K culture medium containing 10% FBS, incubated in a 37° C., 5% CO₂ incubator for 2 days, and added to a cell plate at 1×10⁵ cells/well. The plate was centrifuged at 300 g for 5 min and washed once with 1% BSA. The antibodies were serially diluted to 8 concentrations and added to the cell plate at 100 μL/well. The plate was incubated at 4° C. for 1 h and washed once with 1% BSA. […] The plate was washed three times with 1% BSA, PBS was added at 100 μL/well, and plate reading was performed."}, "[3]": {"biological_target": "T2, human GIPR (human, UniProt P48546 22-466)", "T2 construct": "on CHOK1-human GIPR cells", "T2 sequence": "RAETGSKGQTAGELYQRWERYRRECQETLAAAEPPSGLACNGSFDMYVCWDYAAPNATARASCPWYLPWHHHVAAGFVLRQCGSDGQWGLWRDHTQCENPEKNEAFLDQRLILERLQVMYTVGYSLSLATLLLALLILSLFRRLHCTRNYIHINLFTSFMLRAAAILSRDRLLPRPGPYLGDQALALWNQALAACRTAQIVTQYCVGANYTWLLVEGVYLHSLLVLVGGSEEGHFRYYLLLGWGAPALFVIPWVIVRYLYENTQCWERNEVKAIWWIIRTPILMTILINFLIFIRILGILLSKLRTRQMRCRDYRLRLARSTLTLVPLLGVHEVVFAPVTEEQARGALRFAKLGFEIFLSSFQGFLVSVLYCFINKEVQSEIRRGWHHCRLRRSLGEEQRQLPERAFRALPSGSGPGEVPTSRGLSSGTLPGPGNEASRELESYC", "test": "FACS, CHOK1-human GIPR cells", "source_text": "as §1"}, "[4]": {"biological_target": "T3, N-terminal peptide of human GPRC5D (human, biotinylated; made with and without intramolecular disulfide bonds)", "T3 construct": "synthesized by GenScript; captured on streptavidin; also called amino-terminal peptide", "T3 peptide": "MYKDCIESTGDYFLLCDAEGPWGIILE", "test": "ELISA, biotinylated peptide on streptavidin", "source_text": "(§2) To determine the epitope of GPRC5D to which the GPRC5D/CD3 bispecific antibodies of the present disclosure bind, 4 extracellular domain peptides of human GPRC5D were synthesized, including an amino-terminal peptide (N-terminal peptide), an E2 peptide, an E3 peptide, and an E4 peptide (synthesized by GenScript). The peptides were biotinylated and made into two forms: one lacked intramolecular disulfide bonds and the other included intramolecular disulfide bonds. An Elisa plate (Corning 3590) was coated with streptavidin (sigma, SA101), left to stand at 37° C. for 2 h, and then washed. The non-specific binding sites were blocked with PBS containing 5% skim milk, and the plate was left to stand at 37° C. for 2 h and then washed. The peptides, diluted in PBS containing 1% BSA, were added at 100 μL/well, and the plate was left to stand at 37° C. for 1 h and then washed. Subsequently, the GPRC5D/CD3 antibodies, diluted in PBS containing 1% BSA to 0.003 nM-300 nM, were added at 100 μL/well, and the plate was left to stand at 37° C. for 1 h and then washed. […] TMB (KPL, 5120-0077) was added at 100 μL/well. After 5 min of color development, 1 M H₂SO₄ was added to stop the reaction, and the OD₄₅₀ was measured."}, "[5]": {"biological_target": "T4, E2 peptide of human GPRC5D (human, also: biotinylated, site not given here, made with and without intramolecular disulfide bonds)", "T4 peptide": "NQQTAPVRYC", "test": "peptide ELISA; note: - indicates no detectable binding", "source_text": "as §2"}, "[6]": {"biological_target": "T5, E3 peptide of human GPRC5D (human, biotinylated; made with and without intramolecular disulfide bonds)", "T5 peptide": "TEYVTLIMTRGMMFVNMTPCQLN", "test": "peptide ELISA; note: - indicates no detectable binding", "source_text": "as §2"}, "[7]": {"biological_target": "T6, E4 peptide of human GPRC5D (human, also: biotinylated, site not given here, made with and without intramolecular disulfide bonds)", "T6 peptide": "RGNPQFQRQPQWDDC", "test": "peptide ELISA; note: - indicates no detectable binding", "source_text": "as §2"}}, "note": "No end group written: not given here."}
{"binder": "F4-0G4S-1 (bispecific antibody, formula 4-0G4S) heavy 1: not shown light 1: not shown heavy 2: EVQLVQSGAEVKKPGASVKVSCKVSGYTFTDYPIHWMRQAPGQGLEWMGYVFPRDGSTKYNEKFRVRVTWTADKSTSTVYMELSSLRSEDTAVYYCSRELTAYWGQGTTVTVSSASTKGPSVFPLAPSSKSTSGGTAALGCLVKDYFPEPVTVSWNSGALTSGVHTFPAVLQSSGLYSLSSVVTVPSSSLGTQTYICNVNHKPSNTKVDKKVEPKSCDKTHTCPPCPAPEAAGGPSVFLFPPKPKDTLMISRTPEVTCVVVDVSHEDPEVKFNWYVDGVEVHNAKTKPREEQYNSTYRVVSVLTVLHQDWLNGKEYKCKVSNKALPAPIEKTISKAKGQPREPQVCTLPPSRDELTKNQVSLSCAVKGFYPSDIAVEWESNGQPENNYKTTPPVLDSDGSFFLVSKLTVDKSRWQQGNVFSCSVMHEALHNHYTQKSLSLSPGK light 2: DVVLTQSPLSLPVTLGQPASISCKSSQSLLHSSGKTYLNWLLQRPGQSPRRLIYLVSKLDSGVPDRFSGSGSGTDFTLKISRVEAEDVGVYYCAQGTHFPRTFGGGTKVEIKRTVAAPSVFIFPPSDEQLKSGTASVVCLLNNFYPREAKVQWKVDNALQSGNSQESVTEQDSKDSTYSLSSTLTLSKADYEKHKVYACEVTHQGLSSPVTKSFNRGEC", "values": [{"measurement": "EC50 ratio (relative to JNJ-64407564), cytotoxic activity against NCI-H929", "setting": "[1]", "value": 0.09}, {"measurement": "Lysis rate %, cytotoxic activity against NCI-H929", "setting": "[1]", "value": 136, "unit": "%"}, {"measurement": "binding result", "setting": "[2]", "value": "no binding"}, {"measurement": "binding result", "setting": "[3]", "value": "no binding"}, {"measurement": "EC50", "setting": "[4]", "value": 0.597, "unit": "nM"}, {"measurement": "binding result", "setting": "[5]", "value": "no binding (tested: 0.003 nM-300 nM)"}, {"measurement": "binding result", "setting": "[6]", "value": "no binding (tested: 0.003 nM-300 nM)"}, {"measurement": "binding result", "setting": "[7]", "value": "no binding (tested: 0.003 nM-300 nM)"}]}
